Assay results: patent US20140186363A1 (UNIVERSITY OF ZURICH, published 2014)

T1: MAGEA4 (UniProt P43358 1-317, limits assumed)
T1 construct: also called recombinant MAGEA4-protein; CT1.4
T1 sequence (looked up): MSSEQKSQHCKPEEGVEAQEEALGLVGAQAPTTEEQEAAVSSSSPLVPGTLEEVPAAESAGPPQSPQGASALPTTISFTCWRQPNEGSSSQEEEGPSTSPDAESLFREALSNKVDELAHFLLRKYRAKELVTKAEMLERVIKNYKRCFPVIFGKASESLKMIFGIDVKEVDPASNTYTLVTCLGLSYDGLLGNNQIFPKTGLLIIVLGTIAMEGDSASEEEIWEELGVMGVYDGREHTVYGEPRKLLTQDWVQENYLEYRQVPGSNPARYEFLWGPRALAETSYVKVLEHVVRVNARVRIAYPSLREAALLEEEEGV

T2: MAGEA3 peptide no 15
T2 construct: also called MAGEA3 aa 141-160
T2 peptide: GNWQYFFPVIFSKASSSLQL

T3: MAGEA3 peptide no 2
T3 construct: also called MAGEA3 aa 11-30
T3 peptide: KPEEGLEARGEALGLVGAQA

T4: MAGEA3 peptide no 11
T4 construct: also called MAGEA3 aa 101-120
T4 peptide: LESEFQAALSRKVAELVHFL

T5: MAGEA3 peptide no 8
T5 construct: also called MAGEA3 aa 71-90
T5 peptide: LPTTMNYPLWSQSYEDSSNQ

T6: MAGEA3 peptide no 20
T6 construct: also called MAGEA3 aa 191-210
T6 peptide: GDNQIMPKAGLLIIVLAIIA

T7: MAGEA3 peptide no 25
T7 construct: also called MAGEA3 aa 241-260
T7 peptide: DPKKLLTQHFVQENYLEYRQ

T8: MAGEA3 peptide no 13
T8 construct: also called MAGEA3 aa 121-140
T8 peptide: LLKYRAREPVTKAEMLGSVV

T9: MAGEA3 peptide no 12
T9 construct: also called MAGEA3 aa 111-130
T9 peptide: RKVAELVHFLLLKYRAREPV

T10: MAGEA3 peptide no 19
T10 construct: also called MAGEA3 aa 181-200
T10 peptide: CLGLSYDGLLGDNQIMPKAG

T11: MAGEA3 peptide no 31
T11 construct: also called MAGEA3 aa 295-314
T11 peptide: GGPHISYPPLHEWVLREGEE

T12: MAGEA3 peptide no 16
T12 construct: also called MAGEA3 aa 151-170
T12 peptide: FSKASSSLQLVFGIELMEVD

T13: MAGEA3 peptide no 26
T13 construct: also called MAGEA3 aa 251-270
T13 peptide: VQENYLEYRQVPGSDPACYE

T14: MAGEA3 peptide no 21
T14 construct: also called MAGEA3 aa 201-220
T14 peptide: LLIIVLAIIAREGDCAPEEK

T15: MAGEA3 peptide no 3
T15 construct: also called MAGEA3 aa 21-40
T15 peptide: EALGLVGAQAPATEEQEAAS

T16: MAGEA3 peptide no 7
T16 construct: also called MAGEA3 aa 61-80
T16 peptide: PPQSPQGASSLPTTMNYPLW

T17: MAGEA3 peptide no 10
T17 construct: also called MAGEA3 aa 91-110
T17 peptide: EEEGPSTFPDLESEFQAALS

T18: MAGEA3 peptide no 14
T18 construct: also called MAGEA3 aa 131-150
T18 peptide: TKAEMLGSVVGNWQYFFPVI

T19: MAGEA3 peptide no 30
T19 construct: also called MAGEA3 aa 291-310
T19 peptide: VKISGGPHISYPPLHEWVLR

T20: MAGEA3 peptide no 29
T20 construct: also called MAGEA3 aa 281-300
T20 peptide: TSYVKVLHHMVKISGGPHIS

T21: MAGEA3 peptide no 22
T21 construct: also called MAGEA3 aa 211-230
T21 peptide: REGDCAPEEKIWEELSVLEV

T22: MAGEA3 peptide no 23
T22 construct: also called MAGEA3 aa 221-240
T22 peptide: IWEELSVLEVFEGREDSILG


What was measured:
MAGEA4 = target: T1, MAGEA4; assay: Western blot of recombinant protein, anti-human IgG-HRP
Description: Recombinant MAGEA3- and recombinant MAGEA4-protein were separated in SDS-PAGE and blotted onto membranes. Membranes were incubated with human antibodies 122G3 or 32H2. Binding of human antibodies to proteins on the membrane was evaluated using an HRP-labeled goat anti human IgG (Jackson Immunoresearch, Milan Analytica AG, Rheinfelden, Switzerland). The results are depicted in FIG. 3.

MAGEA3 peptide no 15 = target: T2, MAGEA3 peptide no 15; assay: peptide ELISA (coated 20mer) [Figure 1]
Description: (§1) 20mer peptides spanning the entire MAGEA3 protein with 10 aa overlaps shared by each adjacent peptide (Peptides&Elephants, Nuthetal, Germany) were used to coat Maxisorp ELISA plates (Nunc, Rochester, N.Y.). As control a 20mer peptide representing amino acids 40-21 from the NY-ESO-1 protein was used (rev). The numbering of amino acids of MAGEA3 is based on SEQ ID No:41.
(§2) Human recombinant antibody was used at a concentration of 1 μg/ml. Bound human antibody was detected using horseradish peroxidase-conjugated goat anti-human IgG Fc-gamma specific antibodies (Jackson ImmunoResearch, Europe Ltd., Cambridgeshire, UK).

MAGEA3 peptide no 2 = target: T3, MAGEA3 peptide no 2; assay: peptide ELISA (coated 20mer) [Figure 1]
Description: as §1, §2

MAGEA3 peptide no 11 = target: T4, MAGEA3 peptide no 11; assay: peptide ELISA (coated 20mer) [Figure 1]
Description: as §1, §2

MAGEA3 peptide no 8 = target: T5, MAGEA3 peptide no 8; assay: peptide ELISA (coated 20mer) [Figure 1]
Description: as §1, §2

MAGEA3 peptide no 20 = target: T6, MAGEA3 peptide no 20; assay: peptide ELISA (coated 20mer) [Figure 1]
Description: as §1, §2

MAGEA3 peptide no 25 = target: T7, MAGEA3 peptide no 25; assay: peptide ELISA (coated 20mer) [Figure 1]
Description: as §1, §2

MAGEA3 peptide no 13 = target: T8, MAGEA3 peptide no 13; assay: peptide ELISA (coated 20mer) [Figure 1]
Description: as §1, §2

MAGEA3 peptide no 12 = target: T9, MAGEA3 peptide no 12; assay: peptide ELISA (coated 20mer) [Figure 1]
Description: as §1, §2

MAGEA3 peptide no 19 = target: T10, MAGEA3 peptide no 19; assay: peptide ELISA (coated 20mer) [Figure 1]
Description: as §1, §2

MAGEA3 peptide no 31 = target: T11, MAGEA3 peptide no 31; assay: peptide ELISA (coated 20mer) [Figure 1]
Description: as §1, §2

MAGEA3 peptide no 16 = target: T12, MAGEA3 peptide no 16; assay: peptide ELISA (coated 20mer) [Figure 1]
Description: as §1, §2

MAGEA3 peptide no 26 = target: T13, MAGEA3 peptide no 26; assay: peptide ELISA (coated 20mer) [Figure 1]
Description: as §1, §2

MAGEA3 peptide no 21 = target: T14, MAGEA3 peptide no 21; assay: peptide ELISA (coated 20mer) [Figure 1]
Description: as §1, §2

MAGEA3 peptide no 3 = target: T15, MAGEA3 peptide no 3; assay: peptide ELISA (coated 20mer) [Figure 1]
Description: as §1, §2

MAGEA3 peptide no 7 = target: T16, MAGEA3 peptide no 7; assay: peptide ELISA (coated 20mer) [Figure 1]
Description: as §1, §2

MAGEA3 peptide no 10 = target: T17, MAGEA3 peptide no 10; assay: peptide ELISA (coated 20mer) [Figure 1]
Description: as §1, §2

MAGEA3 peptide no 14 = target: T18, MAGEA3 peptide no 14; assay: peptide ELISA (coated 20mer) [Figure 1]
Description: as §1, §2

MAGEA3 peptide no 30 = target: T19, MAGEA3 peptide no 30; assay: peptide ELISA (coated 20mer) [Figure 1]
Description: as §1, §2

MAGEA3 peptide no 29 = target: T20, MAGEA3 peptide no 29; assay: peptide ELISA (coated 20mer) [Figure 1]
Description: as §1, §2

MAGEA3 peptide no 22 = target: T21, MAGEA3 peptide no 22; assay: peptide ELISA (coated 20mer) [Figure 1]
Description: as §1, §2

MAGEA3 peptide no 23 = target: T22, MAGEA3 peptide no 23; assay: peptide ELISA (coated 20mer) [Figure 1]
Description: as §1, §2

| Binder | binding result (MAGEA4) | binding result (MAGEA3 peptide no 15) | binding result (MAGEA3 peptide no 2) | binding result (MAGEA3 peptide no 11) | binding result (MAGEA3 peptide no 8) | binding result (MAGEA3 peptide no 20) | binding result (MAGEA3 peptide no 25) | binding result (MAGEA3 peptide no 13) | binding result (MAGEA3 peptide no 12) | binding result (MAGEA3 peptide no 19) | binding result (MAGEA3 peptide no 31) | binding result (MAGEA3 peptide no 16) | binding result (MAGEA3 peptide no 26) | binding result (MAGEA3 peptide no 21) | binding result (MAGEA3 peptide no 3) | binding result (MAGEA3 peptide no 7) | binding result (MAGEA3 peptide no 10) | binding result (MAGEA3 peptide no 14) | binding result (MAGEA3 peptide no 30) | binding result (MAGEA3 peptide no 29) | other results |
| --- | --- | --- | --- | --- | --- | --- | --- | --- | --- | --- | --- | --- | --- | --- | --- | --- | --- | --- | --- | --- | --- |
| 34G9 (antibody, V domains shown, Patient-derived human antibody made recombinantly; also called human monoclonal antibody 34G9) VH: EVQLEESGGDLVQPGGSLRLSCAASGFTFSHYWMHWVRQAPGKGLVWVSRINSDGSSTSYADSVKGRFTISRDNAKNTLYLQMNSLRAEDTAVYYCARIGSDGYNYDFWGQGTLVTVSS VL: not shown | no binding | no binding (tested: 1 µg/ml) | no binding (tested: 1 µg/ml) | no binding (tested: 1 µg/ml) | no binding (tested: 1 µg/ml) | no binding (tested: 1 µg/ml) | no binding (tested: 1 µg/ml) | no binding (tested: 1 µg/ml) | no binding (tested: 1 µg/ml) | no binding (tested: 1 µg/ml) | no binding (tested: 1 µg/ml) | no binding (tested: 1 µg/ml) | no binding (tested: 1 µg/ml) | no binding (tested: 1 µg/ml) | no binding (tested: 1 µg/ml) | no binding (tested: 1 µg/ml) | no binding (tested: 1 µg/ml) | no binding (tested: 1 µg/ml) | no binding (tested: 1 µg/ml) | no binding (tested: 1 µg/ml) | binding result (MAGEA3 peptide no 22): no binding (tested: 1 µg/ml); binding result (MAGEA3 peptide no 23): no binding (tested: 1 µg/ml) |
| 102G10 (antibody, V domains shown, Patient-derived human antibody made recombinantly; also called human monoclonal antibody 102G10) VH: EVQLVESGGGLVKPGGSLRLSCAASGFTFSGNSMNWVRQAPGKGLEWVSSISSSSGYIYYADSVKGRFTVSRDNAKNSLYLQMNSLRAEDTAVYYCATWPVTTARVGYWGQGTLVTVSS VL: QSVLTQPPSASGTPGQRVTISCSGSSSNIGSNYVYWHQQLPGTAPKLLIYRHDQRPSGVPDRFSGSKSGTSASLAISGLRSEDEADYYCAAWDDSLSAWVFGGGTKLTVL | no binding | no binding (tested: 1 µg/ml) | no binding (tested: 1 µg/ml) | no binding (tested: 1 µg/ml) | no binding (tested: 1 µg/ml) | no binding (tested: 1 µg/ml) | no binding (tested: 1 µg/ml) | no binding (tested: 1 µg/ml) | no binding (tested: 1 µg/ml) | no binding (tested: 1 µg/ml) | no binding (tested: 1 µg/ml) | no binding (tested: 1 µg/ml) | no binding (tested: 1 µg/ml) | no binding (tested: 1 µg/ml) | no binding (tested: 1 µg/ml) | no binding (tested: 1 µg/ml) | no binding (tested: 1 µg/ml) | no binding (tested: 1 µg/ml) | no binding (tested: 1 µg/ml) | no binding (tested: 1 µg/ml) | binding result (MAGEA3 peptide no 22): no binding (tested: 1 µg/ml); binding result (MAGEA3 peptide no 23): no binding (tested: 1 µg/ml) |
| 32H2 (antibody, V domains shown, Patient-derived human antibody made recombinantly; also called human monoclonal antibody 32H2) VH: QVQLVESGGGVVQPGRSLRLSCAASGFTFSSNAMHWVRQAPGKGLEWVAVISHDGSNKYYADSVKGRFTISRDNSKNTLYLQMNSLRAEDTAVYYCARDGSGSYFNLDYWGQGTLVTVSS VL: QSALTQPASVSGSPGQSITISCTGTSSDVGGYNYVSWYQQHPGKAPKLMIYEVSNRPSGVSNRFSGSKSGNTASLTISGLQAEDEADYYCSSYTSSSTLVFGTGTKVTVL | no binding | – | – | – | – | – | – | – | – | – | – | – | – | – | – | – | – | – | – | – | – |
